B1: TPR t1 (parent)
chain: GACCAAUCUGCCCUCAGAGCUCGAGAACAUCUUCGGAUGCAGAGGAGGCAGGCUUCGGUGGCGCGAUAGCGCCAACGUCCUCAACCUCCAAUGCAUCCCACCACAUGAUGAUGCCUGAAGAGCCUUGGUUUUUUG

Variants of: B1
Experiment: polymerase ribozyme fitness, log enrichment relative to wild type (log ratio); higher = more active; in vitro selection for triplet polymerase activity
Outline: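 A single round of triplicate in vitro selection, including frozen incubation at −7 °C, was applied to PCR-built, transcribed mutant libraries of each subunit of a heterodimeric triplet polymerase ribozyme. Illumina sequencing of input and output libraries retained genotypes with ≥10 input reads and ≥1 read per output. Fitness is the base-2 logarithm of genotype enrichment divided by wild-type enrichment, from inverse-variance-weighted replicate averages.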

GACCAAUCUGCCCUCAGAGCUCGAGAACAUCCUCGGAUGCAGAGGAGUCAGGCUUCGGUGGCGCGAUAGCGCCAACGUCCUCAACCUCCAAUGCAUCCCACCACAUGAUGAUGCCUGAAGAGCCUUGGUUUUUUG and GACCAAUCUGCCCUCAGAGCUCGAGAACAUCCUCGGAUGCAGAGGAAGCAGGCUUCGGUGGCGCGAUAGCGCCAACGUCCUCAACCUCCAAUGCAUCCCACCACAUGAUGAUGCCUGAAGAGCCUUGGUUUUUUG are within 0.2 log units of each other in “polymerase ribozyme fitness (log ratio)” value: -1.13 for the first, -1.18 for the second.

Going from GACCAAUCUGCCCUCAGAGCUCGAGAACAUCCUCGGAUGCAGAGGAGGCAGGCUUCGGUGGCACGAUAGCGCCAACGGCCUCAACCUCCAAUGCAUCUCACCACAUGAUGAUGCCUUAAGAGCCUUGGUUUUUUG to GACCAAUCUGCCCUCAGAGCUCGAGAACAUCCUCGGAUGCAGAGGAGGCAGGCUUCGGUUGCGCGAUAGCGCCAACGUCCUCAACCCCCAAUGCAUCCCAGCACAUGAUGAUGCCUGAAGAGCCUUGGUUUUUUG, the “polymerase ribozyme fitness (log ratio)” value rises from -6.07 to -5.05.

Going from GACCAAUCUGCCCUCAGAGCUCGAGAACAUCCUCGGAUGCAGAGGAGGCAGGCUUCUGUGGCGCGAUAGCGCCAACGUCCUCAACCUCCAAUGCAUCCCACCACAUGAUAAUGCCUGAAGAGCCUUGGUUUUUUG to GACCAAUCUGCCCUCAGAGCUCGAGAACAUCCUCGGAUGCAGAGGAGGCAGGCUUCGGUGGCGCGAUAGCGCCAACUUCCUCAACCUCCAAUGCAUCCCACCACAUGAUGAUGCCUGAAGAGCCUGGGUUUUUUG, the “polymerase ribozyme fitness (log ratio)” value falls from -2 to -2.53.

Compared with GACCAAUCUGCCCUCAGAGCUCGAGAACAUCCUCGGAUGCAGAGGAGGCAGGCUUCGGUGGCGCGAUAGCUCCAACGUCCUCAACCUCCAAUGCAUCCCACCACAUGAUGAUGCCUGAAGAGCCUUGGAUUUUUG, GACCAAUCUGCCCUCAGAGCUCGAGAACAUCCUCGGAUGCAGAGGAGGCAGGCUUCUGUGGCGCGAUAGCGCCAACGUCCUCAACCUCCAAUGCAUCCCACCACAUGAUGAUGCCUGAAGAGCCUUGGUUUUUUG is higher in “polymerase ribozyme fitness (log ratio)” value: -1.48 for the first, -0.164 for the second.

First: GACCAAUCUGCCCUCAGAGCUCGAGAACAUCCUCGGAUGCAGAGGAUUCAGGCUUCGGUGGCGCGAUAGCGCCAACGUCCUCAACCUCCAAUGCAUCCCACCACAUGAUGAUCCCUGAAGAGCCUUGGUUUUUUG
Second: GACCAAUCUGCCCUCAGAGCUCGAGAACAUCCUCGGAUGCAGAGGAGGCAGGCUUCGGUGGCGCGAUAACGCCAAGCUCCUCAACCUCCAAUGCAUCCCACCACAUGAUGAUGCCUGAAGAGCCUUGGUUUUUUG
The “polymerase ribozyme fitness (log ratio)” value of the first is higher: -3.38 for the first, -4.8 for the second.

Compared with GACCAAUCUGCCCUCAGAGCUCGAGAACAUCCUCGGAUGCAGAGGAGGCAGGCUUCGGUGGCUCGAUAACGCCAACGUCCUCAACCUCCAAUGCAUCCCACCACAUGAUGAUGCCUGAAGAGCCUUGGUUUUUUG, GACCAAUCUGCCCUCAGAGCUCGAGAACAUCCUCGGAUGCAGAGGAUUCAGGCUUCGGUGGCGCGAUAGCGCCAACGUCCUCAACCUCCAAUGCAUCCCACCAGAUGAUGAUGCCUUAAGAGCCUUCGUUUUUUG is lower in “polymerase ribozyme fitness (log ratio)” value: -4.13 for the first, -6.32 for the second.

Compared with GACCAAUCUGCCCUCAGAGCUCGAGAACAUCCUCGGAUGCAGAGAAGGCAGGCUUCGGUGGCCCGAUAGCGCCAACGUCCUCAACCUCCAAUGCAUCCCACCACAUGAUGAUGUCUGAAGAGCCUUGGUUUUUUG, GACCAAUCUGCCCUCAGAGCUCGAGAACAUCCUCGGAUGCAGAGGAGGCAGGCUUCGGUCGCGCGAUAGCGCCACCGUGCUCAACCUCCAAUGCAUCCCACCACAUGAUGAUGCCUGUAGAGCCUUGGUUUUUUU is higher in “polymerase ribozyme fitness (log ratio)” value: -2.97 for the first, -2.26 for the second.

Compared with GACCAAUCUGCCCUCAGAGCUCGAGAACAUCCUCGGAUGCAGAGGAGGCAGUCUUCGGUGGCGCGAUAGCGCCAACGUCCGCAACCUCCAAUGCAUCCCACCACAUGAUGAUGCCUGAAGAGCCUUGGUUUUUUG, GACCAAUCUGCCCUCAGAGCUCGAGAACAUCCUCGGAUGCAGAGGAGUCAGGCUUCGGUGGCGCGAUAGCGCCAACGUCCUCAACCUCCAAUGCAUCCCAUCACAUGAUGAUGCCUGGAGAGCCUUGGUUUUUUG is higher in “polymerase ribozyme fitness (log ratio)” value: -4.15 for the first, -3.71 for the second.

GACCAAUCUGCCCUCAGAGCUCGAGAACAUCCUCGGAUGCAGAGGAGUCAGGCUUAGGUGGCGCGAUAGCUCCAACGUCCUCAACCUCCAAUGCAUCCCACCACAUGAUGAUGCCUGAAGAGCCUUGGUUUUUUG and GACCAAUCUGCCCUCAGAGCUCGAGAACAUCCUCGGAUGCAGAGGAGACAGUCUUCGGUGGCGCGAUAGCGCCAACGUCCUCAACCUCCAAUGCAUCCCACCACAUGAUGAUGACUGAAGAGCCUUGGUUUUUUG are within 0.2 log units of each other in “polymerase ribozyme fitness (log ratio)” value: -3.98 for the first, -4.17 for the second.

Compared with GACCAAUCUGCCCUCAGAGCUCGAGAACAUCCUCGGAUGCAGAGGAGGCAGGCUUCGGUGGCGCGAUAGCUCCAACGUCCUCAACCUCCAAUGCAUCCCACCACAUGAUAAUGCCUGAAGAGUCUUGGUUGUUUG, GACCAAUCUGCCCUCAGAGCUCGAGAACAUCCUCGGAUGCAGAGGAGGCAGGCUUCGGUGGCGCGAUAGCGCCAACGUCCUCAACCUCCAAUUCAUCCCACCACAUGAUGAUGCCUGAAGAGCCUUGGUUUUUUG is higher in “polymerase ribozyme fitness (log ratio)” value: -4.9 for the first, -0.79 for the second.

With GACCAAUCUGCCCUCAGAGCUCGAGAACAUCCUCGGAUGCAGAGGAAGCAAGCUUCGGUGGCGCGAUAGCGCCAACGUCCUCAACCUCCAAUGCAUCCCACCACAUGAUGAUGCCUGAAGAGCCUUGGUUUUUUG the “polymerase ribozyme fitness (log ratio)” value was -4.87.

Source: the RNAGym collection of RNA variant scans (doi:10.1073/pnas.2313332121)
